The sequences below were run against T1, K11D2.4 (K11D2.4) (Caenorhabditis elegans) (UniProt G5EBU1).
T1 sequence: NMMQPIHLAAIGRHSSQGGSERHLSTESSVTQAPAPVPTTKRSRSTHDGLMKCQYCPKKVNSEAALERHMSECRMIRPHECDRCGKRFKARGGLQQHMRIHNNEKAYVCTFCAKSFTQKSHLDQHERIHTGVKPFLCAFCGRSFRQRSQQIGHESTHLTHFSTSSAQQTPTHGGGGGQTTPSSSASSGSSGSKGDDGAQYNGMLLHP
With “AAAAAAAA (double strand) [8-mer AAAAAAAA]” the binding signal (PBM E-score (-0.5 to 0.5)) was 0.5. In the case of “AAAAAAAC (double strand) [8-mer AAAAAAAC]”, the binding signal (PBM E-score (-0.5 to 0.5)) is reported as 0.498. “AAAAAAAG (double strand) [8-mer AAAAAAAG]” gave a binding signal (PBM E-score (-0.5 to 0.5)) of 0.498. For “AAAAAAAT (double strand) [8-mer AAAAAAAT]”, the binding signal (PBM E-score (-0.5 to 0.5)) was 0.498.

Each sequence was assayed against T2, M03D4.4 (M03D4.4) (Caenorhabditis elegans) (UniProt Q21494).
T2 sequence: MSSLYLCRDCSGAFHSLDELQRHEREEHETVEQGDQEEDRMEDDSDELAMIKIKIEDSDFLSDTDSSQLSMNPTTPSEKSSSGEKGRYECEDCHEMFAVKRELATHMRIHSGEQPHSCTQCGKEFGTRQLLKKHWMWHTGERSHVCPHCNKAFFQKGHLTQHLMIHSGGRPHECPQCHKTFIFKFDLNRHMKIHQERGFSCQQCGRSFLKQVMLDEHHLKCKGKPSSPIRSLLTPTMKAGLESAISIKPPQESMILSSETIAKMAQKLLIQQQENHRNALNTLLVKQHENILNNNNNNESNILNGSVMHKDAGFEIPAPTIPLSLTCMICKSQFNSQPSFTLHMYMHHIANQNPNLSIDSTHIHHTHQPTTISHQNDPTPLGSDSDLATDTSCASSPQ
With “AATGCATG (double strand) [8-mer AATGCATG]” the binding signal (PBM E-score (-0.5 to 0.5)) was 0.494. Sequence “ACATGCAT (double strand) [8-mer ACATGCAT]” has a binding signal (PBM E-score (-0.5 to 0.5)) of 0.491. “ACGCATGA (double strand) [8-mer ACGCATGA]” showed a binding signal (PBM E-score (-0.5 to 0.5)) of 0.495. “ATCATGCA (double strand) [8-mer ATCATGCA]” was tested, and the binding signal (PBM E-score (-0.5 to 0.5)) was 0.497. “ATGCATGA (double strand) [8-mer ATGCATGA]” gave a binding signal (PBM E-score (-0.5 to 0.5)) of 0.499. “ATGCATGC (double strand) [8-mer ATGCATGC]” was tested, and the binding signal (PBM E-score (-0.5 to 0.5)) was 0.491. With “CATGCATG (double strand) [8-mer CATGCATG]” the binding signal (PBM E-score (-0.5 to 0.5)) was 0.498. With “CGCATGAA (double strand) [8-mer CGCATGAA]” the binding signal (PBM E-score (-0.5 to 0.5)) was 0.491. Work on “GATCATGC (double strand) [8-mer GATCATGC]” yielded a binding signal (PBM E-score (-0.5 to 0.5)) of 0.493. Work on “GCATGGAA (double strand) [8-mer GCATGGAA]” yielded a binding signal (PBM E-score (-0.5 to 0.5)) of 0.491. In the case of “GTCATGCA (double strand) [8-mer GTCATGCA]”, the binding signal (PBM E-score (-0.5 to 0.5)) is reported as 0.495. “GTGCATGA (double strand) [8-mer GTGCATGA]” gave a binding signal (PBM E-score (-0.5 to 0.5)) of 0.494. For “TCATGCAA (double strand) [8-mer TCATGCAA]”, the binding signal (PBM E-score (-0.5 to 0.5)) was 0.493. In the case of “TCCATGCA (double strand) [8-mer TCCATGCA]”, the binding signal (PBM E-score (-0.5 to 0.5)) is reported as 0.491. With “TGCATGAA (double strand) [8-mer TGCATGAA]” the binding signal (PBM E-score (-0.5 to 0.5)) was 0.495.

What follows are sequences tested against T3, T22C8.4 (T22C8.4) (Caenorhabditis elegans) (UniProt Q22677).
T3 sequence: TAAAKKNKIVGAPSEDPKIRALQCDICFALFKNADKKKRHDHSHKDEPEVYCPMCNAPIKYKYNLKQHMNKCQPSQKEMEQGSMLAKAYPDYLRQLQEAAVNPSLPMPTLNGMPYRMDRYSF
Work on “ACCCCTGC (double strand) [8-mer ACCCCTGC]” yielded a binding signal (PBM E-score (-0.5 to 0.5)) of 0.494. “ACCCTGCT (double strand) [8-mer ACCCTGCT]” gave a binding signal (PBM E-score (-0.5 to 0.5)) of 0.487. In the case of “AGCAGGGA (double strand) [8-mer AGCAGGGA]”, the binding signal (PBM E-score (-0.5 to 0.5)) is reported as 0.466. For “AGCAGGGG (double strand) [8-mer AGCAGGGG]”, the binding signal (PBM E-score (-0.5 to 0.5)) was 0.499. “CACCCTGC (double strand) [8-mer CACCCTGC]” showed a binding signal (PBM E-score (-0.5 to 0.5)) of 0.49. Work on “CAGCAGGG (double strand) [8-mer CAGCAGGG]” yielded a binding signal (PBM E-score (-0.5 to 0.5)) of 0.494. For “CCCCCTGC (double strand) [8-mer CCCCCTGC]”, the binding signal (PBM E-score (-0.5 to 0.5)) was 0.488. Work on “CCCCTGCA (double strand) [8-mer CCCCTGCA]” yielded a binding signal (PBM E-score (-0.5 to 0.5)) of 0.493. “CCCCTGCC (double strand) [8-mer CCCCTGCC]” showed a binding signal (PBM E-score (-0.5 to 0.5)) of 0.479. “CCCCTGCG (double strand) [8-mer CCCCTGCG]” gave a binding signal (PBM E-score (-0.5 to 0.5)) of 0.493. “CCCTGCAG (double strand) [8-mer CCCTGCAG]” was tested, and the binding signal (PBM E-score (-0.5 to 0.5)) was 0.483. “CCCTGCTA (double strand) [8-mer CCCTGCTA]” showed a binding signal (PBM E-score (-0.5 to 0.5)) of 0.486. “CCCTGCTC (double strand) [8-mer CCCTGCTC]” showed a binding signal (PBM E-score (-0.5 to 0.5)) of 0.479. With “GCAGGGGA (double strand) [8-mer GCAGGGGA]” the binding signal (PBM E-score (-0.5 to 0.5)) was 0.495. For “GCAGGGGC (double strand) [8-mer GCAGGGGC]”, the binding signal (PBM E-score (-0.5 to 0.5)) was 0.498.

Each sequence was assayed against atf-7 (C07G2.2) (Caenorhabditis elegans) (UniProt Q86MD3).
atf-7 (C07G2.2) (Caenorhabditis elegans), sequence (Q86MD3 339-508): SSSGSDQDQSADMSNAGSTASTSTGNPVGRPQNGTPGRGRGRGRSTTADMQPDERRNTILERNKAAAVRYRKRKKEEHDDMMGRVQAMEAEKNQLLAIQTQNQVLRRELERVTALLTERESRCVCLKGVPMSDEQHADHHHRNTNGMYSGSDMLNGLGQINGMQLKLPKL
“ACGTCACC (double strand) [8-mer ACGTCACC]” gave a binding signal (PBM E-score (-0.5 to 0.5)) of 0.496. Sequence “ACGTCACT (double strand) [8-mer ACGTCACT]” has a binding signal (PBM E-score (-0.5 to 0.5)) of 0.496. “ATACGTCA (double strand) [8-mer ATACGTCA]” showed a binding signal (PBM E-score (-0.5 to 0.5)) of 0.494. With “CACGTCAC (double strand) [8-mer CACGTCAC]” the binding signal (PBM E-score (-0.5 to 0.5)) was 0.496.

The sequences below were run against T4, lin-29 (W03C9.4) (Caenorhabditis elegans) (UniProt G5EGB2).
T4 sequence: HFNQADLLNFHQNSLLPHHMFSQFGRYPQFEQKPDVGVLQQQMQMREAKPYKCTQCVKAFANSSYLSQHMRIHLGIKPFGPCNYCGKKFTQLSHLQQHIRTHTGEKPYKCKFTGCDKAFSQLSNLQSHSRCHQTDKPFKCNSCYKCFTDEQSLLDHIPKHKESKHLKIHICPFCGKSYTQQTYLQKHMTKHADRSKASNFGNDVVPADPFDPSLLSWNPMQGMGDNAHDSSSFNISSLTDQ
“AAAAAAAA (double strand) [8-mer AAAAAAAA]” was tested, and the binding signal (PBM E-score (-0.5 to 0.5)) was 0.499. For “AAAAAAAC (double strand) [8-mer AAAAAAAC]”, the binding signal (PBM E-score (-0.5 to 0.5)) was 0.497. In the case of “AAAAAAAG (double strand) [8-mer AAAAAAAG]”, the binding signal (PBM E-score (-0.5 to 0.5)) is reported as 0.495. “AAAAAAAT (double strand) [8-mer AAAAAAAT]” showed a binding signal (PBM E-score (-0.5 to 0.5)) of 0.496. For “AAAAAACT (double strand) [8-mer AAAAAACT]”, the binding signal (PBM E-score (-0.5 to 0.5)) was 0.495. “CATAAAAA (double strand) [8-mer CATAAAAA]” was tested, and the binding signal (PBM E-score (-0.5 to 0.5)) was 0.494. For “GCAAAAAA (double strand) [8-mer GCAAAAAA]”, the binding signal (PBM E-score (-0.5 to 0.5)) was 0.494. “GTAAAAAA (double strand) [8-mer GTAAAAAA]” showed a binding signal (PBM E-score (-0.5 to 0.5)) of 0.494. In the case of “GTTTTTTA (double strand) [8-mer GTTTTTTA]”, the binding signal (PBM E-score (-0.5 to 0.5)) is reported as 0.494. “TATAAAAA (double strand) [8-mer TATAAAAA]” gave a binding signal (PBM E-score (-0.5 to 0.5)) of 0.494.

Each sequence was assayed against T5, ztf-19 (T27B1.2) (Caenorhabditis elegans) (UniProt Q22829).
T5 sequence: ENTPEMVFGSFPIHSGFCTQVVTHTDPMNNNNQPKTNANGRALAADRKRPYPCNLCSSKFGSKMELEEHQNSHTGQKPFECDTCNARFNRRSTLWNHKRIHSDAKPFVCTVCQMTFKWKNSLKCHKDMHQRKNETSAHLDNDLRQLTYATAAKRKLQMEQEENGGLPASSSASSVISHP
Sequence “AGTGTAAA (double strand) [8-mer AGTGTAAA]” has a binding signal (PBM E-score (-0.5 to 0.5)) of 0.494. “AGTGTAAC (double strand) [8-mer AGTGTAAC]” gave a binding signal (PBM E-score (-0.5 to 0.5)) of 0.491. Sequence “AGTGTAAT (double strand) [8-mer AGTGTAAT]” has a binding signal (PBM E-score (-0.5 to 0.5)) of 0.497. “ATTACAAC (double strand) [8-mer ATTACAAC]” gave a binding signal (PBM E-score (-0.5 to 0.5)) of 0.496. “ATTACACA (double strand) [8-mer ATTACACA]” gave a binding signal (PBM E-score (-0.5 to 0.5)) of 0.493. Sequence “CAGTGTAA (double strand) [8-mer CAGTGTAA]” has a binding signal (PBM E-score (-0.5 to 0.5)) of 0.494. With “CATTACAC (double strand) [8-mer CATTACAC]” the binding signal (PBM E-score (-0.5 to 0.5)) was 0.494. For “CGTTGTAA (double strand) [8-mer CGTTGTAA]”, the binding signal (PBM E-score (-0.5 to 0.5)) was 0.493. “CTTTACAC (double strand) [8-mer CTTTACAC]” was tested, and the binding signal (PBM E-score (-0.5 to 0.5)) was 0.494. “GTGTAACA (double strand) [8-mer GTGTAACA]” showed a binding signal (PBM E-score (-0.5 to 0.5)) of 0.494. Sequence “GTGTAATA (double strand) [8-mer GTGTAATA]” has a binding signal (PBM E-score (-0.5 to 0.5)) of 0.497. For “TAGTGTAA (double strand) [8-mer TAGTGTAA]”, the binding signal (PBM E-score (-0.5 to 0.5)) was 0.495. “TGTGTAAA (double strand) [8-mer TGTGTAAA]” showed a binding signal (PBM E-score (-0.5 to 0.5)) of 0.491.

Each sequence was assayed against T6, ztf-27 (T09F3.1) (Caenorhabditis elegans) (UniProt G5EDA0).
T6 sequence: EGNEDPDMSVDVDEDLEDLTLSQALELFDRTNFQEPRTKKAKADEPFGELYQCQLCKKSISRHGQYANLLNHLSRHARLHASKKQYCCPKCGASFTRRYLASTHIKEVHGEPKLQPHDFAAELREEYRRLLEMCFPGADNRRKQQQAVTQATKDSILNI
“AATGGTGT (double strand) [8-mer AATGGTGT]” gave a binding signal (PBM E-score (-0.5 to 0.5)) of 0.477. Sequence “ACACCAAT (double strand) [8-mer ACACCAAT]” has a binding signal (PBM E-score (-0.5 to 0.5)) of 0.478. Sequence “ACACCATA (double strand) [8-mer ACACCATA]” has a binding signal (PBM E-score (-0.5 to 0.5)) of 0.479. Work on “ATGGTGCA (double strand) [8-mer ATGGTGCA]” yielded a binding signal (PBM E-score (-0.5 to 0.5)) of 0.487. “ATGGTGTA (double strand) [8-mer ATGGTGTA]” showed a binding signal (PBM E-score (-0.5 to 0.5)) of 0.485. Work on “ATGGTGTG (double strand) [8-mer ATGGTGTG]” yielded a binding signal (PBM E-score (-0.5 to 0.5)) of 0.477. “GTGCACCA (double strand) [8-mer GTGCACCA]” gave a binding signal (PBM E-score (-0.5 to 0.5)) of 0.484. “TACACCAA (double strand) [8-mer TACACCAA]” gave a binding signal (PBM E-score (-0.5 to 0.5)) of 0.483. Work on “TACACCCA (double strand) [8-mer TACACCCA]” yielded a binding signal (PBM E-score (-0.5 to 0.5)) of 0.477. “TACGCCAA (double strand) [8-mer TACGCCAA]” showed a binding signal (PBM E-score (-0.5 to 0.5)) of 0.48. In the case of “TGCACCAA (double strand) [8-mer TGCACCAA]”, the binding signal (PBM E-score (-0.5 to 0.5)) is reported as 0.488. In the case of “TGCGCCAA (double strand) [8-mer TGCGCCAA]”, the binding signal (PBM E-score (-0.5 to 0.5)) is reported as 0.478. Work on “TGGTGCAA (double strand) [8-mer TGGTGCAA]” yielded a binding signal (PBM E-score (-0.5 to 0.5)) of 0.483. For “TGGTGTAA (double strand) [8-mer TGGTGTAA]”, the binding signal (PBM E-score (-0.5 to 0.5)) was 0.48.

— PMC4434323
